{
  "source": "the DeepSol protein solubility set",
  "data": [
    {"assay": "soluble on expression in E. coli; label from the status in PepcDB or PDB records", "values": [
      {"sequence": "MTEGDDQLISIRKQLENLNNATDDINSYEMKLETVKKQFCETQLMFNKEMLGIPKKLAKHISKSRQFFDLKSRESEIRRCVQQAAAQFERQKTSVEMAREQVQILHNSLNNNQELDAEKQYVDVIEQQLELVKEAEGECLKAEKCHASRVRDLLQLEMALRKCLEENGSAIKKSRPYYERKEVLTRTMNSQLELMSILEHEVQERKDSYSDSMRALEQISDQIHQERSSQSSLAPSSDAESDSS", "soluble on expression in E. coli": "not soluble"},
      {"sequence": "MGDITNEMIWQAIKELAEQLQQTNGQVQQLSQQVQQTNEQVQQLGQQIQHLNSQVQQLNHQVQQTHEQVGQLAKQVQQTNEQLNQLSQQVADMDKRLTDVANGQNILVEELFENKKEIKRVKTALNMY", "soluble on expression in E. coli": "not soluble"},
      {"sequence": "MGDPVEGKGGPQPRGGKKKDADDEKNAWEEGDFIDEKELKGALQLGVLKTADSVALRAGERNGLDMVVEEDVVSQVGALVWDTVAQDWADDLARFVAHAGRQRVNMDDISLLTRRNPDLLRAACELAGVDCPQETSGGTKGKPRKRKKDDVTVAPMLRAAPSAPNSQNAPLLAPIQEEDDENDDDDEITILDDQILHTPQQKSYSKKAKFSEEEAPSSRKRISTSTPKTTAERTLKFPDEITPIRQPNDLQEIVVFNRANLSAIEEEEQQDSFDAFGTTGGNDSSSKTITNTSSLLRQAEEHRSSIVEPTKDRIEKERLDRLVPDDEEFENASVDSFDNFNAEPDPAPAPALAPVPEKRTSVFSKKICSFDFDDDDGDDSFDEPVVVVAEVPKLPVQQQKTPKASGSESKKKPEKRPESSTPSVFSKKNKTIQLDDHDSFDDFDFGI", "soluble on expression in E. coli": "not soluble"},
      {"sequence": "MAHHHHHHMSSPQVVCEAKKAFEANKRVYESVLLTFKGVDGYDVYNCSVPFSYKGKTHIYGRVEKRDIWAASHVRLFEETGKDEFTAVPDGMTWLLEDPFVSSVKGEALFGGTRIRKVSNRLLSYYCDFFRGGIEQGLYFTTGPDNMKDIRCVELANGSIGVFSRPKTDVYTCIGFTIIDDLSELTQKVINEAEPLNVLHPGAWGGVNQAYLLTSGKVGCIAHYSYNSKDDKDCPTSVYLNYSFVLDPETKQAEMERIIGTRSCYPDYPVKAERLIDCAFSSGIVMREDGKCDLYSGLGDTCEGRIAIDYPFEGYGAVVDQLSF", "soluble on expression in E. coli": "soluble"},
      {"sequence": "MEKLKEFRGIKEHLGVFREAVKDAERIGFAGVPGVCTPFAQLFAYAVRDKDNIFIPNTDFSKARKLEVTEYGVELGEISPGNVDVLVLLGGLSMPGIGSDIEDVKKLVEDALEEGGELMGLCYMDMFARAGWYELLDFDCVINADIDGYVLRG", "soluble on expression in E. coli": "soluble"},
      {"sequence": "MDQVVVFQKMFEQVRKEQNFSWFYSELKHHRIAHYIYYLATDNIRIITHDDTVLLLRGTRNLLKVSTTKNPAKIKEAALLHICGKSTFREYCSTLAGAGVFRWVTDVNHNKRSYYAIDNTLLYIEDVENNKPLILEHHHHHH", "soluble on expression in E. coli": "soluble"},
      {"sequence": "MGSDKIHHHHHHMIEKPNAICLKNRKIIKVTGEEATHFLQALITTDVKKIGLQEIFPGALLSPQGKVLADFLIGKREDGYFIDIFSSLSDLLYKRLLLYKMRTKVEIMQPLQEFVTVSWENETDSLNFYSSFIDKRFPAKEKIIRIYGETPFLASECHDNWNRLRIRYAIPESDKDYEIGKVFPHDINYDQINGLAFNKGCYIGQEVVSRMHHRRAARRRILLVKSQHELIPGANIVAGTKILGSLGTCAANEALALMRIDHIKDAMDHNTPFTVKDVPVTISIAENMNFTFPESTV", "soluble on expression in E. coli": "not soluble"},
      {"sequence": "MIDNLIKKEFLAHKEALEKSLEGLQEALKQSVHLLIETLENQGKILICGNGGSASDAQHFAAELTGRYKLERKGLSAISLNTDISALTAIANDYGYEEVFARQVEALGVKNDVLIGISTSGNSKNVLKAYEKAKDLEMKTLSLAGRDGGKMKPLSDMALIVPSDDTPRIQEMHILMIHILCDCIERHFAHKN", "soluble on expression in E. coli": "not soluble"},
      {"sequence": "MAHHHHHHMFFRTCCRLMVRPTALQRCKSVNSVTLVGVVHDIQSGFVYEDAVTQFTLTTTSIDTTHPTQEVVVEKDHHTIRCFGELFSAEVKQKVKEGNVVCVNGRLRLSPQLEPSCNKHFYFPYIQVQPPHGQVAVIHGDRRNTPASVNPTAEEIPAESESGTTSKTS", "soluble on expression in E. coli": "not soluble"},
      {"sequence": "MTNIERLERCADIMRRRWIYDPEAGLLFSRETKDVIKGSMTNKGHLVVTVHEGKFKVTLTYQKACYVYTYGAYDETLYEVHHVNLNKQDNRIKNIRLMPKEKHRRIHKNVRKLIRLGHTQWLQPQLIEQSL", "soluble on expression in E. coli": "not soluble"},
      {"sequence": "MHRTTRIKITELNPHLMCVLCGGYFIDATTIIECLHSFCKTCIVRYLETSKYCPICDVQVHKTRPLLNIRSDKTLQDIVYKLVPGLFKNEMKRRRDFYAAHPSADAAN", "soluble on expression in E. coli": "soluble"},
      {"sequence": "SENDSIELDDVANLMFYGEGQIGTNKQPFMFIFDTGSANLWVPSVNCDSIGCSTKHLYDASASKSYEKDGTKVEISYGSGTVRGYFSKDVISLGDLSLPYKFIEVTDADDLEPIYSGSEFDGILGLGWKDLSIGSIDPVVVELKKQNKIDNALFTFYLPVHDKHVGYLTIGGIESDFYEGPLTYEKLNHDLYWQIDLDIHFGKYVMQKANAVVDSGTSTITAPTSFLNKFFRDMNVIKVPFLPLYVTTCDNDDLPTLEFHSRNNKYTLEPEFYMDPLSDIDPALCMLYILPVDIDDNTFILGDPFMRKYFTVFDYEKESVGFAVAKNL", "soluble on expression in E. coli": "soluble"},
      {"sequence": "MYHSLFESLCMVPDPRIERKKIYPLDFLLLIVFLSTLSGNTSWYEIEDYAEEYEEELKSLYEMLTGHQLMHTMPSHDTLNRSISLLDVEAFEGAYKRWIEGFISATSGKHICIDGKTMRGVKKLSFDTQSHVVSAFSPQDMCSLAQLYIDRKTNEIPAIHQLLDLLDLNGAVVSIDAIGTQTAIAEQIIDKGGNYVLCVKANQSLSLQEIEAYFCPLFQKHILLDEQTELSHGRIETRRYESILNPLEIEANEVLTRWKGLRSIHKVVRKRRDKKSDKTSEEVAYYISSLTDVSSLKQAIRGHWAIENKLHHCLDVYFGHDASHKRTRNVAQIMDIIQKINLLIIERLKTNMKSSIPRIQKKLARMKPQQLITIQF", "soluble on expression in E. coli": "not soluble"},
      {"sequence": "MFRLGTTPRATTYDPDARIGEVASRFGLPTRVLIEIVRTESFQRSLARVTSGKPVVLDLRELDSDLASWIATHARLVEPALRELVRTVAPDVEPRVRFRGLPHRFRRVERIRPMDGALISIEGVVREVRGAERLEHAIVDTGSELVAVRLHGHRLGPGLRVEILGIVRSATLDALEVHKKDPIPEVHPDPAELEEFRELADKDPLTTFARAIAPLPGAEEVGKMLALQLFSCVGKNSERLHVLLAGYPVVCSEILHHVLDHLAPRGVYVDLRRTELTDLTAVLKEDRGWALRAGAAVLADGGILAVDHLEGAPEPHRWALMEAMDKGTVTVDGIALNARCAVLAAINPGEQWPSDPPIARIDLDQDFLSHFDLIAFLGVDPRPGEPEEQDTEVPSYTLLRRYLLYAIREHPAPELTEEARKRLEHWYETRREEVEERLGMGLPTLPVTRRQLESVERLAKAHARMRLSDDVEPEDVDIAAELVDWYLETAMQIPGGDEIRISSLKP", "soluble on expression in E. coli": "soluble"},
      {"sequence": "MTKQQKGFVTGQPTGALNLSDILDSEELGEYHLMSAAIITGNTVDFSGLGAGPDDPFEIASITKIFTGELLRLQIERGEITESTAVGDVLGERVADSLIRDITVEELANHTSGLPRLGNVGLRPFMATFFDKNPYKDLSADRVISISTTSKLNSRGEFHYSNLGFALLGQVLARNAGLTFDQLLDRDLLAPLNLNNTKLMTPESLAQDAPQGFSTPGKQVEAWEMDGFLPAAGLRSTARDMAVFCQYLFTKGPAPFTWQSLESAPEIVWHNGESFGYSSVLFFNTATTTAIFVAADVATSVFPIGHELLMANSTRQESKLEHHHHHH", "soluble on expression in E. coli": "not soluble"},
      {"sequence": "MAHHHHHHMAKKHLKRLYAPKDWMLSKLTGVFAPRPRAGPHKLRECLSLLIIIRNRLKYALNALEAQMILRQGLVCVDGKPRKDGKYPAGFMDVVEIPKTGDRFRILYDVKGRFALVRVSEAESSIKMMKVVNVYTGTGRIPVAVTHDGHRIRYPDPRTSRGDTLVYDVKEKKVLDLIKIGNGKVVMVTGGANRGRIGEIVSIERHPGAFDIARLKDASGHEFATRATNIFVIGKDMSSVPVTLPKQQGLRINVIQEREEKLIAAETRRTTQAHSKRKTKV", "soluble on expression in E. coli": "not soluble"},
      {"sequence": "MSTNLNIEVSINLTEIDVNAQLAEFARFQQVRDDSRYAQDVEREFVLGPIRHHRRQLEPSRSAPLASTEQPVAQATTHPSTENARVPALVLRSGSWRALPVAQGGSSHIRIWPVSRSATTTSTATRHPPFTNTSASTSFAPYQRHRGSALQTSECTICFEKPVDPRGCPKCLKVIGCKKCVKKWFDTSASKACPLCRFEWKLHRDNPDVVKISTLEVLKRQKQNRP", "soluble on expression in E. coli": "not soluble"},
      {"sequence": "MAMIGLVGKPNVGKSTMFNALTEKPAEIGNYPFTTIQPNKGIAYITSPCPCKELGVKCNPRNSKCIDGIRHIPVEVIDVAGLVPGAHEGRGMGNKFLDDLRQADAFILVVDASGKTDAEGNPTENYDPVEDVKFLLNEIDMWIYSILTKNWDKLARRAQQEKNIVKALKDQLSGLNIDEDDIKMAIRDMDESPIKWTEEDLLNLAKKLRKISKPMIIAANKADHPDAEKNIERLKKEFKDYIVIPTSAEIELALKRAEKAGIIKRKENDFEIIDESKVNEQMRRAFDYIKDFLKKYGGTGVQECINKAYFDLLDMIVVYPVEDENKFSDKQGNVLPDAFLVKKGSTARDLAYKVHTELGEKFIYAIDAKKKIRVGADYELKHNDIIKIVSAAK", "soluble on expression in E. coli": "soluble"},
      {"sequence": "MSLSTKDVKELAIEQAKKFGGKLEVCPKVPIETKADLGIAYTPGVAAVSSAIHEKKERAYELTTKKNTVAVISDGSAVLGLGNIGPEAAMPVMEGKAALFKRFAGVDSIPLVLDTQDTEEIIQTVKFLAPTFGGINLEDISAPRCFEIEQRLIDELDIPVFHDDQHGTAIVVLAALYNSLKLINKKIEDIHVVINGGGSAGLSITRKFLAAGVKHIIIVDRAGILSETDTALPPHHAEIAKLTNREHRTGDLATALEGADVFVGVSAPGVLKPEWIQQMNEQPVIFAMANPVPEIFPDEALAAGAYIVGTGRSDFPNQINNVLAFPGIFRGALDARAKKITIEMQIAAAKGIAKLIPDNELTPTNIIPDPFQEGVAKVVAESVRNAVKETNEGHHHHHH", "soluble on expression in E. coli": "soluble"},
      {"sequence": "MRIPRDTGAAEPGQYRTARTPYAREPMRCLSPAHPCKRVVTMVASQLMKTQIALNWIGALIHMSPSNILTLLPSLSLAKRVSARISKTINATPVLRERVASPRSRDARNTMDTKEFEGGALFATTAGSAANLAELSARFVYGDEVDRWDVDVDDEGDPIELAETRGSTFGRNAKFYFSSSPTIKGASRIDDLFSTSDQRYYYVPCPSCGHMQTLEWERLLYSPDFSTVHYQCAGPDCDVLIEEFHKGDMLARGEWRSHADGDGETVGFHLNALYAPLGWQSWSSLAKQYEKAKKAQDRGDLEPMQVFYNTRLAKVWDSAQEQTKAAVLQARALLEDYVLGTMPTGVLSLVSAVDVQANRLEMMVVGCGEGMERWIVDFQVIMGDPADDRTWLALDEKLKERYRHPCGVSLAILATAVDSGGHHTHEVYQFCRVRRWRNVFAIKGASKPGKPVIAQRPSLVDVTWKGQTERNGAELWMVGTDTAKDWIYNRYHLESGPGALHFPKDLPDDFFAQCVAERKVTRYVKGFKRIEWVKGKAERNEALDLLVYSLAMAHYLGLHRYGEHDW", "soluble on expression in E. coli": "not soluble"},
      {"sequence": "NIILQEDNAQLDEVVVVGYGTMKKKDLTGSVTAVKGDELAARRTTQLSTALQGALSGVMVSRDNGAPGSSASIQIRGVTTIGDSSPLVIIDGIPGDINSVNPEDVESMSVLKDAASASIYGSRAAAGVIVITTKRAKSGD", "soluble on expression in E. coli": "not soluble"}
    ]}
  ]
}
